Like-named read-outs stand apart in the source and are kept apart here.
Tests used:
Assay in all cases: fluorescence anisotropy against solution viscosity
[1] = target: Rosmarinus
[2] = target: Rosmarinus; remark: listed apart in the source
[3] = target: Rosmarinus; remark: listed apart in the source
[4] = target: amFP486/K68M (UniProt Q9U6Y6)
[5] = target: eqFP486

Rosmarinus
stoichiometry N [1]: 4
stoichiometry N [2]: 4
stoichiometry N [3]: 2

amFP486/K68M (from UniProt Q9U6Y6 1-229) (natural protein)
stoichiometry N [4]: 4

eqFP486 (natural protein)
stoichiometry N [5]: 2
